Patent US11904004B2, “Anti-CD277 antibodies” (INSTITUT NATIONAL DE LA SANTE ET DE LA RECHERCHE MEDICALE …, priority 2010, dated 2024)

What was measured:
Format in all cases: cell-based, human
monocytes [1] = assay: Costimulatory molecules expression on monocytes, flow cytometry
Protocol: (§1) Blood samples were obtained from 5 healthy volunteers enrolled among the staff members, after informed consent. Monocytes were separated from peripheral blood mononuclear cells, and isolated using the MACS CD14 isolation kit (Miltenyi Biotech, Auburn, Calif. USA). Monocytes were cultured for 5 days with 200 ng/ml of recombinant human GM-CSF and 10 ng/ml recombinant human IL-4 (Schering-Plough Research Institute). These cells were termed immature dendritic cells (iDC). To achieve the stimulation, monocytes and iDC were cultured with 10 ng/ml of LPS, ligand for TLR4, 30 μg/ml of 8848 (Sigma-Aldrich, Milano, Italy), ligand for TLR7/8 and with […] of poly (I:C) (Sigma-Aldrich), ligand for TLR3, and were harvested after 48 h. The cells were cultured in RPMI 1640 supplemented with 10% heat-inactivated FCS, 5 mM L-glutamine and 50 IU/ml penicillin-streptomycin (from here on referred to as complete medium).
Monocytes and iDCs before and after stimulation were analysed by imunofluorescence flow cytometry (FACScalibur Becton Dickinson, Milano, Italy) to verify their activation state. To this end, mAb specific for CD80, CD86, HLA-DR, CD1a, CD14 (BD Becton Dickinson), BT3 (clone 20.1, IgG1) and BT3 Fab2 were previously selected, purified and characterised (Bensussan and Olive, 2005, Compte et al., 2004) or irrelevant molecules (anti-CD19, Becton Dickinson, and anti-CD31, clone Moon-1, provided by F. Malavasi, both IgG1) were used. All the available anti-BT3 mAbs are unable to discriminate among the three members of this family (BT3.1, BT3.2, or BT3.3), probably due to their high sequence homology (Compte et al., 2004, Bensussan and Olive, 2005). As further control, to block the possible effect of trace amounts of endotoxin, polymyxin B (10 μg/ml, Sigma-Aldrich) was added to the anti-BT3 mAb 20.1 before adding the cells.

monocytes [2] = assay: Apoptosis detection (Annexin V), survival of monocytes; conditions: both monocytes and iDC; data not shown
Protocol: as §1
Monocytes and iDC were cultured on plastic coated with anti-BT3 mAb (clone 20.1) or with isotype-matched irrelevant mAb. As control, the cells were stimulated with 20 ng/ml recombinant human GM-CSF (Schering-Plough Research Institute). After three days, cells were harvested, stained with Annexin V-FITC (Bender MedSystems, Wien, Austria) and analysed by flow cytometry.

CD4+ T cells = assay: Functional assay on CD4+ T cells with aAPC, CFSE labeling and cytokine ELISA
Protocol: Human CD4^+ T cells were purified by negative selection from PBMCs using magnetic beads (Miltenyi Biotec) according to the manufacturer's protocol. CD4+ T cells were routinely more than 97% pure.
CD4^+ T cells were labelled with 0.5 μM CFSE (Invitrogen) for 10 min at 37° C., washed and stimulated (1.5×10^5 cells/well) with aAPC at a ratio of 1:1 (cells to beads) comprised of magnetic beads in triplicate in 96-well round-bottom plates (Falcon; BD Biosciences). Cultures were incubated at 37° C., 5% CO2 for 5 days and then proliferation of CFSE labelled CD4^+ T cells were measured by flow cytometry (FACS Canto, […]).
Magnetic beads (DYNABEADS® M-450 Epoxy, Dynal Biotech) were coated with the following mAbs as described in Serriari et al. (serriari, ji 2010): anti-CD3 (OKT3), anti-human CD28 (CD28.2), and/or various concentrations of anti-human CD277 (CD277, 20.1) or IgG1 or anti-MHC class I (MHC I) (YJ4) or IgG1. These aAPCs were coated with suboptimal anti-CD3 Ab (5%), suboptimal levels of anti-CD28 Ab (10%), and either IgG1 Ab (CD3/CD28/IgG1), anti-CD277 Ab (CD3/CD28/CD277+IgG1) or anti-MHC class I (CD3/28/anti-MHC class I+IgG1), constituting the remaining 85% of protein added to the bead. The amount of protein was kept constant at […] by the addition of control IgG 1. […]

primary AML blasts = assay: Chromium release assay, lysis of primary AML blasts by Vγ9Vδ2 T cells
Protocol: Effector γδ T cells were established and maintained as previously described^28. PBMC from HV were stimulated with ZOL (1 μm) and rhlL-2 (200 IU/ml) at Day 0. From Day 5, rhIL-2 was renewed every two days and cells were kept at 1.5×10^6/m1 for 15 days. NK cells were isolated using EASYSEP® Human NK cell enrichment kit (StemCell Technologies). The purity of γδ T cells and NK cells was determined by flow cytometry and respectively greater than 80% and 98%. The Burkitt lymphoma cell line, DAUDI, the human AML cell line, U937, and the erythroleukemic cell line, K562, were obtained from the American Type Culture Collection and cultured (0.5×10^6/ml) in RPMI 1640 medium with 10% FCS. BTN3A Knock-down HEK293FT cells (sh #284; clone #30) were provided by E.Scotet (Inserm U892, Nantes), cultured and transfected with BTN3A1, BTN3A2, BTN3A3 mutated cDNA-containing plasmids, as described^23.
0.5×10^6 target cells were incubated with 50 pCi of ^51Cr (Perkin-Elmer) for AML blasts and 10 pCi for DAUDI and K562 cells for 90 minutes and mixed with effector cells in a Effector:Target (E:T) ratio of […]. After 4 hours of incubation at 37° C., 50p1 supernatant of each sample was transferred in LUMA® plates and radioactivity was determined by a gamma counter. The percentage of specific lysis was calculated using the formula [(experimental−spontaneous release/total−spontaneous release)×100] and expressed as the mean of triplicate.

B1: mAb 20.1: murine anti-CD277 antibody obtainable from the hybridoma CNCM I-4402; agonist (antibody, V domains shown)
VH: QVQLQQSGAELVKPGASVKLSCKASGYTFTRYYLYWVKQRPGQGLEWIGEINPNNGGTKFNEKFKSKATLTVDKSSRTTYIQLSSLTSEDSAVYYCSREDDYDGTPDAMDYWGQGTAVTVSS
VL: DIQMNQSPSSLSASLGDTITITCHASQNINLWLSWYQQRPGNIPKLLIYRASNLHTGVPSRFSGSGSATGFTLTISSLQPEDIATYYCQQGHSYPYTFGGGTKLDIK
Q: What does the source list for B1?
A: CD80 and HLA-DR molecules at the monocyte surface (monocytes [1]; coated mAb): up-regulation; cell surface costimulatory molecule CD86 on monocytes (monocytes [1]; coated mAb, 24 h stimulation): up-regulation; activating effect in the presence of polymyxin B (monocytes [1]; polymyxin B 10 μg/ml): maintained; cellular activation with non-coated (soluble) mAb (monocytes [1]; soluble mAb, no cross-linking, data not shown): no effect; lowest anti-BT3 mAb dilution able to promote a good survival capability (monocytes [2]): 10 µg/mL; secretion of cytokines induced by anti-CD3 and anti-CD28 stimulation (INFg, IL-2, IL-10) (CD4+ T cells; dose-dependent, supernatants day 2): increased; cells entered division (CFSE dilution) (CD4+ T cells; with anti-CD3 plus anti-CD28 on beads, day 5, anti-CD277 at 17 μg/ml): 90%; Vγ9Vδ2 T cell lysis of ZOL-resistant or ZOL-poorly responsive AML blasts (primary AML blasts; E:T 30:1): significantly enhanced; enhancement of Vγ9Vδ2 T cells lysis of AML blasts compared with BrHpp (primary AML blasts; E:T 30:1, ZOL 45 μM O/N, 20.1 mAb 10 μg/ml, BrHpp 2 μM): significantly more efficient; specific lysis of AML blasts (primary AML blasts; Vγ9Vδ2 T cells pre-incubated with mAb (10 μg/ml, 90 minutes), washed): ~4.36±2.11%; AML blasts lysis by Vγ9Vδ2 T cells, addition to ZOL (primary AML blasts; anti-BTN3A 20.1 mAb added to ZOL): poor but significant; specific lysis of AML blasts (primary AML blasts; blasts pre-incubated with mAb (10 μg/ml, 90 minutes), washed): 22.92±7.64%; sensitization of blasts from UPN09 to Vγ9Vδ2 T cells lysis in vitro (primary AML blasts; data not shown): highly sensitized; specific lysis of AML blasts (primary AML blasts; simultaneous incubation of effector cells, target cells and mAb): 35.95±1.16%
